Source: patent US20110020369A1 (SCHERING, published 2011)
Positions count from the first letter of the chain named.

T1: hTSLPR-ECTO-His (human)
T1 chain: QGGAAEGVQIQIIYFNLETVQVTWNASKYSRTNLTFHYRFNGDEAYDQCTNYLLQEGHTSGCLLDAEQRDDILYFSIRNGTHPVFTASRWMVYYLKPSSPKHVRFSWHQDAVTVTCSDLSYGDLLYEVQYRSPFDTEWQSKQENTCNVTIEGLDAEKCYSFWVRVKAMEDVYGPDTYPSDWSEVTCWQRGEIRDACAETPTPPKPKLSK

T2: human TSLPR on Ba/F3-hTSLPR-hIL7Ra cells (human, UniProt Q9HC73 23-371)
T2 sequence (looked up): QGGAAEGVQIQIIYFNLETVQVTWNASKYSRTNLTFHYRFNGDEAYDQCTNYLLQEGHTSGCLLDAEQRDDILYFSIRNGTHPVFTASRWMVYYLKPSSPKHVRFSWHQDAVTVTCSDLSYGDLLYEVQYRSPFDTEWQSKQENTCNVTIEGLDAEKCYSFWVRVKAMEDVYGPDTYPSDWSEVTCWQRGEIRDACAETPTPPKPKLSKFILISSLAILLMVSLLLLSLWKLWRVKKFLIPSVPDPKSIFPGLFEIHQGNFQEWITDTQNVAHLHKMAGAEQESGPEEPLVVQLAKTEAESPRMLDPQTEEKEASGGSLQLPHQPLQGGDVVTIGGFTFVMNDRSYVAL

B1: mouse antibody 54C11 (antibody, mouse IgG2a, V domains shown)
VH: QVQLQQSGPEVVRPGVSVKISCKGSGFTFTDYAIHWVRQSHAKSLEWIGIIRPSNGNTNCDQKFKDKATMTVDKSSSTAYLDLARLTSEDSAIYYCSRSRVWGGSLAYWGQGTLVTVSA
VL: DIVMTQSQKFMSTSVGDRVSVTCKASQNVGTNIAWYQQKPGQSPEALIYSASYRYSGVPDRFTGSGSGTDFTLTITNVQSEDLAEYFCQQYKSYPWTFGGGTKLEIKR
notes: Mouse IgG2a/kappa from hybridoma; also called m54C11; LB55.54C11.3G11
B2: mouse antibody 54A11 (antibody, mouse IgG2a, V domains shown)
VH: EVQLQQSGPELVKPRASVKISCKASGYSFTGYYIHWVKQSHVKSLEWIGRINPYNGATIYNPNFKDKASLTVDKSSSTAFMEVHSLTSEDSAVYYCARSYGYVNYFDYWGQGTTLTVSS
VL: EIVLTQSPATLSVTPGDSVSLSCRASQSISNNLHWYHQKSHESPRLLIKFGFQSISGIPSRFSGSGSGTDFTLSINSVETEDFGMYFCQQTNSWLTFGAGTKLELKR
notes: Mouse IgG2a/kappa from hybridoma; also called m54A11; LB55.54A11.3D6
B3: mouse antibody 61C11 (antibody, mouse IgG2a, V domains shown)
VH: QAYLQQSGAELVRSGASVKMSCKASGYTFTSYNLHWIKLTPGQGLEWIGYIYPGLNGTLYNQKFRGKATLTADTSSSTAYMQISSLTSEDSAVYFCARSDYGKAWFAYWGRGTLVTVSA
VL: DILLTQSPAILSVSPGERVSFSCRASQSIATKIHWYQQRTDHSPRLLIQLGSESISGIPSRFSGSGSGTDFTFTINSVESEDIAVYYCQQSNRYPYTFGGGTKLEVKR
notes: Mouse IgG2a/kappa from hybridoma; also called m61C11; LB55.61C11.2B1
B4: mouse antibody 49A5 (antibody, mouse IgG1, V domains shown)
VH: QVQLKQSGPGLVQPSQSLSITCTVSGFSLTTYGVHWVRQSPGKGLEWLGVIWRGGNTAYNPAFMSRLSITKDNSKSQVFFKMNSLQADDTAIYHCAKKSYYGYHAMGYWGQGTSVTVSS
VL: DIQMTQTTSSLSASLGDRVTINCRASQDISNYLNWYQQNPDGTVKLLIYYTSRLHSGVPSRFSGSGSGTDYSLTISNLEQEDIATYFCQQANTLPWTFGGGTKLEIKR
notes: Mouse IgG1/kappa from hybridoma; also called m49A5; LB55.49A5.2F9
B5: mouse antibody 4G8 (antibody, mouse IgG1, V domains shown)
VH: QVQLKQSGPGLVQPSQSLSITCTVSGFSLTIYGLHWVRQSPGKGLEWLGVIWRGGSTDYNAAFMSRLRITKDNSKSQVFFKMDSLQADDTAIYYCAKPYYDYDGNWYFDVWGAGTTVTVSS
VL: DIVMTQSQKFMSTSVGDRVSVTCKASQNVGTNVAWYQKKSGQSPKPLIYSASSHCSEVPDRFTGSGSGTDFTLTINNVQSEDLAEYFCQQYNRYPLTFGTGTKLEVRR
notes: Mouse IgG1/kappa from hybridoma; also called m4G8; LB55.4G8.2A6
B6: mouse anti human TSLPR antibody 13H5 (antibody, mouse IgG1, V domains shown)
VH: QVLLKQSGPSLVQPSQSLSITCTVSGFSLSRYGVHWVRQSPGKGLEWLGVIWRSGSTDYNAAFMSRLSITQDNSKSQVFFNMNSLQSDDSAIYYCAKKAFYVMDYWGQGTSVTVSS
VL: B4 VL with N22S, N31I, N39K, D70N, Y71F, S76T, Q80E, A91G
notes: Mouse IgG1/kappa purified from hybridoma supernatant; also called m13H5; LB55.13H5.2C3
B7: mouse anti-human TSLPR antibody 70E8 (antibody, mouse IgG1, V domains shown)
VH: DVQLQESGPDLVKPSQSLSLTCTVTNYSITSGYSWPWIRQFPGNKLEWLGYIHSSGRTNYNPSLKSRISITRDTSKNQFFLQLNSVTPEDTATYYCARSQLGLVFFAYWGQGTLVTVSA
VL: DIVMTQSQKFMSTSVGDRVSVTCKASQSVGANVAWYQQIPGHSPKVLIYSASYRFSGVPDRFTGSGSGTDFTLTISNVQSEDLAEYFCQQYNSYPYTFGGGTKLEIRR
notes: Mouse IgG1/kappa from hybridoma; also called m70E8; LB55.70E8.1A8
B8: rat anti-human TSLPR antibody 18B3 (antibody, V domains shown)
VH: EVQLVESGGGLVQPGRSLRLSCVASGFTFNNYWMTWVRQAPGKGLEWVASITDTSGRTYYPDSVKGRFTISRDHAKSTLYLQMNSLRPEDTATYYCTKTLGGIPRDWGQGVMVTVSS
VL: NIQLTQSPSLLSASVGDRVTLSCKGSQNINNYLAWYQQKLGEAPKLLIFKTNILQTGIPLRFSGSGSGTDYTLTISSLHCEDLATYYCYQFNNGFTFGPGTKLELKR
notes: Rat monoclonal antibody; also called r18B3; LB1.18B3
B9: chimeric anti-human TSLPR 13H5 antibody (antibody, V domains shown)
VH: B6 VH
VL: B4 VL with N22S, N31I, N39K, D70N, Y71F, S76T, Q80E, A91G
notes: also called chim 13H5; Chimeric 13H5; not shown: human IgG1 heavy chain constant region (CH1-hinge-CH2-CH3); human kappa light chain constant domain (CL domain)

Target: T1, hTSLPR-ECTO-His
Assay: ELISA, plate coated with TSLPR 50 ng/well, HRP goat anti-mouse detection
Experimental: (§1) The ELISA measures the EC50 of certain mouse anti-TSLPR antibodies generated according to Example 2 are reported on Table 4. The antibodies were purified from hybridoma supernatants, and his-hTSLPR or cTSLPR-Ig was used to determine binding affinity.
(§2) Coating of plates was performed as follows: TSLPR (50 ng per well) in PBS was incubated at 4° C. overnight. Plates were washed with 1 cycle (3 washes/cycle) on a Molecular Devices plate washer. Antibody was then titrated across a row of eight wells in the range of 3000 ng/mL to […] using serial 3-fold dilutions and incubated for 60 min. at 25° C. Plates were washed for 1 cycle, HRP-goat anti-mouse) (1:2,000 dilution) was added at 0.05 mL/well and incubated for 60 min at 25° C. Plates were washed for 1 cycles. ABTS substrate was added at 0.05 mL/well and incubated 10 min at 25 C. Plates read at) or A_{405 nm}. [0223]

EC50	Binder
0.0059 µg/mL	B1
0.0458 µg/mL	B2
0.026 µg/mL	B3
0.0417 µg/mL	B4
0.0059 µg/mL	B5

Target: T3, cTSLPR-Ig (cynomolgus monkey)
T3 construct: also called cyTSLP R-hIg P749; Mam-Trans[FlagPreProTrypsin]DELTA2_NHP[Ig]
Assay: as above
Experimental: as §1, §2

EC50	Binder
0.153 µg/mL	B1
0.0075 µg/mL	B2
0.26 µg/mL	B3
> 0.001 µg/mL	B6
0.0059 µg/mL	B4
0.958 µg/mL	B7
0.081 µg/mL	B5

Target: T2, human TSLPR on Ba/F3-hTSLPR-hIL7Ra cells
Assay: cell-based or functional assay

Avg IC50, Ba/F3-huTSLPR proliferation	IC50 Assay I, Ba/F3-huTSLPR proliferation	IC50 Assay II, Ba/F3-huTSLPR proliferation	IC50 Assay III, Ba/F3-huTSLPR proliferation	Avg IC50, inhibition of hTSLP-induced proliferation of Ba/F3-huTSLPR cells	Binder
0.0203 µg/mL	0.0195 µg/mL	0.0188 µg/mL	0.0227 µg/mL		B1
0.178 µg/mL	0.211 µg/mL	0.132 µg/mL	0.191 µg/mL		B2
0.162 µg/mL	0.174 µg/mL	0.139 µg/mL	0.172 µg/mL		B3
	0.0127 µg/mL	0.014 µg/mL	0.0097 µg/mL	0.0121 µg/mL	B6
0.127 µg/mL	0.143 µg/mL	0.108 µg/mL	0.131 µg/mL		B4
0.0446 µg/mL	0.0442 µg/mL	0.0489 µg/mL	0.0407 µg/mL		B7
0.304 µg/mL	0.318 µg/mL	0.259 µg/mL	0.335 µg/mL		B8
0.262 µg/mL	0.292 µg/mL	0.202 µg/mL	0.291 µg/mL		B5

Target: cynomolgus TSLPR on Ba/F3-cTSLPR-cIL7Ra cells (cynomolgus monkey)
Assay: cell-based or functional assay

Avg IC50, Ba/F3-cyTSLPR proliferation	IC50 Assay I, Ba/F3-cyTSLPR proliferation	IC50 Assay II, Ba/F3-cyTSLPR proliferation	IC50 Assay III, Ba/F3-cyTSLPR proliferation	Binder
0.138 µg/mL	0.125 µg/mL	0.153 µg/mL	0.137 µg/mL	B2
> 10 µg/mL	~13 µg/mL	~18 µg/mL	~15 µg/mL	B3
0.0129 µg/mL	0.0104 µg/mL	0.0148 µg/mL	0.0134 µg/mL	B6
0.231 µg/mL	0.202 µg/mL	0.246 µg/mL	0.246 µg/mL	B4
> 50 µg/mL	~55 µg/mL	~90 µg/mL	~90 µg/mL	B7

Target: T3, cTSLPR-Ig
Assay: SPR BIAcore T100, cyTSLPR-hIg amine-coupled on CM5, antibody as analyte, bivalent analyte model, n = 6
Experimental: (§3) The kinetic binding activities of the mouse anti human TSLPR antibody 13H5, chimeric anti-human TSLPR 13H5 antibody, rat anti-human TSLPR antibody 18B3, and mouse anti-human TSLPR antibody 70E8 against both human (hu) and cynomolgus monkey (cyno) TSLPR were measured by surface plasmon resonance using a BIAcore T100 system (BIAcore AB, Upsalla, Sweden). Approximately 70RUs of […] were immobilized via amine coupling chemistry onto a Sensor Chip CM5 (Research grade, BR-1006-68). HBS-EP buffer (BR-1006-69) was used as the running buffer with a flow rate of 30 μL/min. Antibodies at varying concentrations ranging from 0.01 to 600 nM were injected over the immobilized hu or cyno TSLP surfaces at a flow rate of 30 μL/min. Following each injection cycle the CM5 chip surface was regenerated using a series of solutions (10 mM Glycine pH 1.5 and 25 mM NaOH respectively) at a flow rate of 75 μL/min.
(§4) Background subtraction binding sensorgrams were used for analyzing the rate constant of association (ka) and dissociation (kd), and the equilibrium dissociation constant KD. The resulting data sets shown in Table 5 were fitted with a bivalent analyte model using the BlAevaluation software (version 1.0).

Kd	koff	kon	Binder
0.089 nM	7.1e-05 s⁻¹	800000 M⁻¹ s⁻¹	B6

Target: T3, cTSLPR-Ig
Assay: SPR BIAcore T100, cyTSLPR-hIg amine-coupled on CM5, antibody as analyte, bivalent analyte model, n = 2
Experimental: as §3, §4

Kd	koff	kon	Binder
0.374 nM	0.000172 s⁻¹	460000 M⁻¹ s⁻¹	B9
10.1 nM	0.0078 s⁻¹	770000 M⁻¹ s⁻¹	B8
